Results: patent publication US20240342199

Key:
[1] = biological target: Recombinant CypD Ser31→Ala mutant, P30405
[2] = biological target: Recombinant CypD Ser31/Ser123→Ala double mutant, P30405
[3] = biological target: Recombinant CypD Ser123→Ala mutant, P30405
[4] = biological target: Recombinant GST-CypD (wild type), P30405
Recombinant GST-CypD (wild type), P30405, sequence (P30405 whole entry): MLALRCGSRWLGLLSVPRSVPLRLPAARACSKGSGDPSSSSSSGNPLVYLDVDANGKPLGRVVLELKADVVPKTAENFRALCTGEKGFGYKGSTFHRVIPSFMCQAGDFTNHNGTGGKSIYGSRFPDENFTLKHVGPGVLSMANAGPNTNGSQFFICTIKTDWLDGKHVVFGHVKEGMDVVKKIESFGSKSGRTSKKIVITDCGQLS

Recombinant CypD Ser123→Ala mutant, P30405, sequence (P30405 whole entry, looked up, change not shown): as the sequence (P30405 whole entry) above
Recombinant CypD Ser31→Ala mutant, P30405, sequence (P30405 whole entry, looked up, change not shown): as the sequence (P30405 whole entry) above
Recombinant CypD Ser31/Ser123→Ala double mutant, P30405, sequence (P30405 whole entry, looked up, change not shown): as the sequence (P30405 whole entry) above

B1: active Akt2 (protein)
chain: MNEVSVIKEGWLHKRGEYIKTWRPRYFLLKSDGSFIGYKERPEAPDQTLPPLNNFSVAECQLMKTERPRPNTFVIRCLQWTTVIERTFHVDSPDEREEWMRAIQMVANSLKQRAPGEDPMDYKCGSPSDSSTTEEMEVAVSKARAKVTMNDFDYLKLLGKGTFGKVILVREKATGRYYAMKILRKEVIIAKDEVAHTVTESRVLQNTRHPFLTALKYAFQTHDRLCFVMEYANGGELFFHLSRERVFTEERARFYGAEIVSALEYLHSRDVVYRDIKLENLMLDKDGHIKITDFGLCKEGISDGATMKTFCGTPEYLAPEVLEDNDYGRAVDWWGLGVVMYEMMCGRLPFYNQDHERLFELILMEEIRFPRTLSPEAKSLLAGLLKKDPKQRLGGGPSDAKEVMEHRFFLSINWQDVVQKKLLPPFKPQVTSEVDTRYFDDEFTAQSITITPPDRYDSLGLLELDQRTHFPQFSYSASIRE
In the case of B1, the “kinase assay with recombinant proteins, 32P-ATP, autoradiography” value (shortened to “kinase assay with recombinant proteins”) [1] is reported as “abolished Akt phosphorylation of CypD”, the “kinase assay with recombinant proteins” value [2] is reported as “abolished Akt phosphorylation of CypD” and the “kinase assay with recombinant proteins” value [3] is reported as “readily phosphorylated”. The “kinase assay with recombinant proteins” value [4] was “readily phosphorylated”.
